From patent US20040053383A1, “Crystals of cytochrome P450 2C9, structures thereof and their use” (ASTEX TECHNOLOGY LTD., priority 2001, published 2004)

B1: Clone 1155: 2C9-FGloop with the substitution Lys206Glu (protein)
chain: MAKKTSSKGRPPGPTPLPVIGNILQIGIKDISKSLTNLSKVYGPVFTLYFGLKPIVVLHGYEAVKEALIDLGEEFSGRGIFPLAERANRGFGIVFSNGKKWKEIRRFSLMTLRNFGMGKRSIEDRVQEEARCLVEELRKTKASPCDPTFILGCAPCNVICSIIFHKRFDYKDQQFLNLMEKLNENIEILSSPWIQVYNNFPALLDYFPGTHNKLLKNVAFMKSYILEKVKEHQESMDMNNPQDFIDCFLMKMEKEKHNQPSEFTIESLENTAVDLFGAGTETTSTTLRYALLLLLKHPEVTAKVQEEIERVIGRNRSPCMQDRSHMPYTDAVVHEVQRYIDLLPTSLPHAVTCDIKFRNYLIPKGTTILISLTSVLHDNKEFPNPEMFDPHHFLDEGGNFKKSKYFMPFSAGKRICVGEALAGMELFLFLTSILQNFNLKSLVDPKNLDTTPVVNGFASVPPFYQLCFIPVHHHH
B2: 2C19: human cytochrome P450 2C19, published data (protein, UniProt P33261 1-490, looked up)
Cytochrome P450 2C19: MDPFVVLVLCLSCLLLLSIWRQSSGRGKLPPGPTPLPVIGNILQIDIKDVSKSLTNLSKIYGPVFTLYFGLERMVVLHGYEVVKEALIDLGEEFSGRGHFPLAERANRGFGIVFSNGKRWKEIRRFSLMTLRNFGMGKRSIEDRVQEEARCLVEELRKTKASPCDPTFILGCAPCNVICSIIFQKRFDYKDQQFLNLMEKLNENIRIVSTPWIQICNNFPTIIDYFPGTHNKLLKNLAFMESDILEKVKEHQESMDINNPRDFIDCFLIKMEKEKQNQQSEFTIENLVITAADLLGAGTETTSTTLRYALLLLLKHPEVTAKVQEEIERVIGRNRSPCMQDRGHMPYTDAVVHEVQRYIDLIPTSLPHAVTCDVKFRNYLIPKGTTILTSLTSVLHDNKEFPNPEMFDPRHFLDEGGNFKKSNYFMPFSAGKRICVGEGLARMELFLFLTFILQNFNLKSLIDPKDLDTTPVVNGFASVPPFYQLCFIPV

Assays:
[1] = tested on: P450 2C9; assay: Functionality assay with methoxy-4-(trifluoromethyl)-coumarin as fluorescent substrate (Examples 6 and 8); type: biochemical, human; settings: 140 μM methoxy-4-(trifluoromethyl)-coumarin, 37° C.
Protocol: Activity assays on P450 2C9 were performed in a 96-well plate assay format with a Fluoroscan Ascent FL Instruments (Labsystem), using the methoxy-4-(trifluoromethyl)-coumarin as a fluorescent substrate.
(§1) Fifteen pmoles of P450 were reconstituted with 0.1 unit of purified human oxidoreductase, in presence of 140 μM of substrate methoxy-4-(trifluoromethyl)-coumarin, a NADPH regenerating system that includes 0.15 mM NADP^+, 0.38 mM Glucose-6-phosphate and 2.9 unit/ml glucose-6-phosphate dehydrogenase in 170 μl final volume of 25 mM KPi, pH 7.4, 0.38 mM MgCl2 Incubations were performed at 37° C. for several minutes and 7-hydroxy-4-(trifluoromethyl)-coumarin was used as metabolite standard to determinate the metabolic rate. The excitation and emission wavelengths used were respectively 409 and 530 nm.
as §1, with “MgCl2.” for “MgCl2”, “The excitation and emission wavelengths used were respectively 409 and 530 nm.” left out

[2] = tested on: P450 2C9; type: biochemical, human
Protocol: Activity assays on P450 2C9 were performed in a 96-well plate assay format with a Fluoroscan Ascent FL Instruments (Labsystem), using the 7-methoxy-4-(trifluoromethyl)-coumarin as a fluorescent substrate.

[3] = target: 2C19 (Homo sapiens, UniProt P33261); settings: cited from earlier work

| Molecule | activity with 2C9 substrate [1] | 7-MFC [2] | 7-MFC [3] |
| --- | --- | --- | --- |
| B1 | 0.083 pmol/min/pmol P450 | 0.23 min⁻¹ | – |
| B2 | – | – | 2.98 min⁻¹ |
